# According to PMC11046700 (Proceedings of the National Academy of Sciences of the …, 2024):
# B1: mouse WT-APOA5 (mouse apolipoprotein AV with an N-terminal mouse albumin tag) (natural protein, UniProt Q8C7G5 21-368, looked up)
# chain: RKSLWDYFSQNSWSKGVMGQPQKLAQENLKGSFEQDLYNMNNYLEKLGPLRGPGKEPPLLAQDPEGIRKQLQQELGEVSSRLEPYMAAKHQQVGWNLEGLRQQLKPYTAELMEQVGLSVQELQEQLRVVGEDTKAQLLGGVDEALNLLQDMQSRVLHHTDRVKELFHPYAERLVTGIGHHVQELHRSVAPHAAASPARLSRCVQTLSHKLTRKAKDLHTSIQRNLDQLRDELSAFIRVSTDGAEDGDSLDPQALSEEVRQRLQAFRHDTYLQIAAFTQAIDQETEEIQHQLAPPPPSHSAFAPELGHSDSNKALSRLQSRLDDLWEDIAYGLQDQGHSHLSDPEGHSG
# Molecular target: the molecule itself
# Test: SEC
protein,measurement,value
B1,stoichiometry N,2
